The test concerns the target FLAG tagged TSC2 (UniProt P49815). As to the kind of experiment: single molecule pulldown.

Here are results for one substance from doi:10.1101/2022.10.03.510455.

UniProt P49815, sequence (P49815 whole entry): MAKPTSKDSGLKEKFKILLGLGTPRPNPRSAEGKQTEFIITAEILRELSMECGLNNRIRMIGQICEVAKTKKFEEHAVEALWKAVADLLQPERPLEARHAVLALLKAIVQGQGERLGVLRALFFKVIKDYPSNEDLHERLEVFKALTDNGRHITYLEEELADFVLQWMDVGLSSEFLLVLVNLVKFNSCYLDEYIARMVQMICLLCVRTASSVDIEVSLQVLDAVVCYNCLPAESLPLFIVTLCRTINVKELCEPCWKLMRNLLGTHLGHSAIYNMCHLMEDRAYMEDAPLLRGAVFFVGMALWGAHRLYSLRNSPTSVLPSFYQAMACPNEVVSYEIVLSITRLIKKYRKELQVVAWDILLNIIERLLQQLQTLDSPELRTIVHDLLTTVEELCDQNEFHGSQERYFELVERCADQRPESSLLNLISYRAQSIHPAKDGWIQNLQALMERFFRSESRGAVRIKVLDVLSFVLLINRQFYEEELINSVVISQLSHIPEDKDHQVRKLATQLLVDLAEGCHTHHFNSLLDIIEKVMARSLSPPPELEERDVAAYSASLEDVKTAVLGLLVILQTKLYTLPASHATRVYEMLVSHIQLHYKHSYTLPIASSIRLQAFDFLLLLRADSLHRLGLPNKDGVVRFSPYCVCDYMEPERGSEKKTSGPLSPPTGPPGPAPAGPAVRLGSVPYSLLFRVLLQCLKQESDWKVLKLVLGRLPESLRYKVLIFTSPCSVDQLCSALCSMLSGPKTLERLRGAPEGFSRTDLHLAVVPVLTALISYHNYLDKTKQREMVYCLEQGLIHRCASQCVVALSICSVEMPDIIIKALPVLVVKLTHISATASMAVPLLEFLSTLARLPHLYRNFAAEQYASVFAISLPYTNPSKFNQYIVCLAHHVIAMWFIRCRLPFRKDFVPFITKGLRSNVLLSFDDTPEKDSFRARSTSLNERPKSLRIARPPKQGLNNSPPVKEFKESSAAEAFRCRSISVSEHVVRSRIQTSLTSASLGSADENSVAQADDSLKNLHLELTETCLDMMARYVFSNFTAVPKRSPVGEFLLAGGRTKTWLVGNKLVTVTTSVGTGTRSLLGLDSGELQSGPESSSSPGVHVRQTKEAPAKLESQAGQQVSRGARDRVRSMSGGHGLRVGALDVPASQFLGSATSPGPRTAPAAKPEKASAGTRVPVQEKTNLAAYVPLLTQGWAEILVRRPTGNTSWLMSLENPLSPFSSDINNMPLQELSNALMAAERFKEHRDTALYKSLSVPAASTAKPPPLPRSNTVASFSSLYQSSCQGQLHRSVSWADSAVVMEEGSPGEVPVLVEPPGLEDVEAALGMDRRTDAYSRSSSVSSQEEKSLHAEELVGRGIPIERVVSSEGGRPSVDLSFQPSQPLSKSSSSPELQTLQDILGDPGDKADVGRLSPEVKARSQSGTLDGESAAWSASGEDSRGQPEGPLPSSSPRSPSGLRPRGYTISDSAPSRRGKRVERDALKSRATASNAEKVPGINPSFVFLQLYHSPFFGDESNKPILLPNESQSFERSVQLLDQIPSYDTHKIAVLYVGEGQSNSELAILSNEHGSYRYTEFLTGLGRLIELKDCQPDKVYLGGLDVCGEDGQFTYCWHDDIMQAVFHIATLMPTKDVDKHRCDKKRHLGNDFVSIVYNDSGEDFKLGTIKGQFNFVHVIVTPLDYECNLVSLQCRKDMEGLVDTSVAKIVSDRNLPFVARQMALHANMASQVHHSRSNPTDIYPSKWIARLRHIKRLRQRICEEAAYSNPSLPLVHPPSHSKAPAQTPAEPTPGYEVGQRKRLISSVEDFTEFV

The substance “recombinant α-syn PFF (from UniProt P37840 1-140) (natural protein)” showed an IC50 of 0.5 nM.

What is called IC50 is the concentration that gives 50% inhibition.
